Assay results as given in publication PMC8988012 (The Journal of Biological Chemistry, 2022).

Legend:
[1] = mCherry-Zyxin microscopy, U2OS, ± GFP-14-3-3γ; settings: glycan changed form; control: wild type
[2] = GFP-Zyxin1–350 microscopy, U2OS, ± mCherry-14-3-3γ; settings: glycan changed form; control: Zyxin (1–350), Ser-169
[3] = target: T1, His-Zyxin (wildtype) (UniProt Q15942 1-572); test: pull-down
T1 sequence (looked up): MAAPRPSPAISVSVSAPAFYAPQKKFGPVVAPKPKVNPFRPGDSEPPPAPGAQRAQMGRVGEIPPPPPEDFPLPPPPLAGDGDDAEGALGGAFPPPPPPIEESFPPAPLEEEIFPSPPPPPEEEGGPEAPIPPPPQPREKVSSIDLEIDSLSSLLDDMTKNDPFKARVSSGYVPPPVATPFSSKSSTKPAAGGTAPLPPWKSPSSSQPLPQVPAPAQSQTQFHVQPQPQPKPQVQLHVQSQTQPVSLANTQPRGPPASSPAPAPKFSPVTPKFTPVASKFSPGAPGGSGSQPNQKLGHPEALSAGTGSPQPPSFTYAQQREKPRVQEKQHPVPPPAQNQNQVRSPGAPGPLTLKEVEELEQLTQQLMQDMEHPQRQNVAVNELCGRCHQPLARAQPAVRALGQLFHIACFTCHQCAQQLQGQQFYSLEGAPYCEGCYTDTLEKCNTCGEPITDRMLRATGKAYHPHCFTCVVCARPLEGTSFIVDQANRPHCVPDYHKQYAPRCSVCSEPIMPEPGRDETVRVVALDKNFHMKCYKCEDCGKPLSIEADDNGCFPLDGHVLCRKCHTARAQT

B1: Zyxin: S169C (protein)
parent chain: T1 sequence (looked up)
With B1 the “other: 14-3-3γ-induced nuclear localisation” value [1] was “no change” and the “other: 14-3-3γ-induced nuclear localisation” value [2] was “no change”.

B2: GST-14-3-3γ (natural protein, UniProt P61981 1-247, looked up)
chain: MVDREQLVQKARLAEQAERYDDMAAAMKNVTELNEPLSNEERNLLSVAYKNVVGARRSSWRVISSIEQKTSADGNEKKIEMVRAYREKIEKELEAVCQDVLSLLDNYLIKNCSETQYESKVFYLKMKGDYYRYLAEVATGEKRATVVESSEKAYSEAHEISKEHMQPTHPIRLGLALNYSVFYYEIQNAPEQACHLAKTAFDDAIAELDTLNEDSYKDSTLIMQLLRDNLTLWTSDQQDDDGGEGNN
B2: binds [3].
